# Publication PMC3985465
# B1: Papain (crude, from papaya latex) (protein)
# chain: IPEYVDWRQKGAVTPVKNQGSCGSCWAFSAVVTIEGIIKIRTGNLNEYSEQELLDCDRRSYGCNGGYPWSALQLVAQYGIHYRNTYPYEGVQRYCRSREKGPYAAKTDGVRQVQPYNEGALLYSIANQPVSVVLEAAGKDFQLYRGGIFVGPCGNKVDHAVAAVGYGPNYILIKNSWGTGWGENGYIRIKRGTGNSYGVCGLYTSSFYPVKN
# Target: L′LKAAμ thiopeptide (thioleucine-Leu-Lys-Ala-Ala-7-methoxycoumarin-4-ylalanine)
# Experiment: stopped-flow fluorescence kinetics
# Conditions: other: stopped-flow fluorescence kinetics (global fit to a three-step scheme)
protein,measurement,value
B1,"KS (enzyme-substrate complex, first step of the three-step scheme)",KS = k1/k–1 = 921 μM
